Results taken from US20240117018A1.

Experiments:
Assay in all cases: cell-based or functional assay
[1] = target: HIV-1 Env pseudovirus 1006_11_C3_1601 (HIV-1)
[2] = target: HIV-1 Env pseudovirus 1054_07_TC4_1499 (HIV-1)
[3] = target: HIV-1 Env pseudovirus 249M B10 (HIV-1)
[4] = target: HIV-1 Env pseudovirus 62357_14_D3_4589 (HIV-1)
[5] = target: HIV-1 Env pseudovirus 6240_08_TA5_4622 (HIV-1)
[6] = target: HIV-1 Env pseudovirus CNE30 (HIV-1)
[7] = target: HIV-1 Env pseudovirus Ce0682_E4 (HIV-1)
[8] = target: HIV-1 Env pseudovirus Ce2010_F5 (HIV-1)
[9] = target: HIV-1 Env pseudovirus HIV-001428-2.42 (HIV-1)
[10] = target: HIV-1 Env pseudovirus HIV-16055-2.3 (HIV-1)
[11] = target: HIV-1 Env pseudovirus Q769.d22 (HIV-1)
[12] = target: HIV-1 Env pseudovirus SC422661.8 (HIV-1)
[13] = target: HIV-1 Env pseudovirus WITO4160.33 (HIV-1)
[14] = target: HIV-1 Env pseudovirus ZM214M.PL15 (HIV-1)
[15] = target: HIV-1 Env pseudovirus ZM233M.PB6 (HIV-1)
[16] = target: Env of HIV-1 pseudovirus 263-8 (HIV-1)
[17] = target: Env of HIV-1 pseudovirus BF1266.431a (HIV-1)
[18] = target: Env of HIV-1 pseudovirus CNE30 (HIV-1)
[19] = target: Env of HIV-1 pseudovirus Ce0682_E4 (HIV-1)
[20] = target: Env of HIV-1 pseudovirus Ce1172_H1 (HIV-1)
[21] = target: Env of HIV-1 pseudovirus Du156.12 (HIV-1)
[22] = target: Env of HIV-1 pseudovirus HIV-0013095-2.11 (HIV-1)
[23] = target: Env of HIV-1 pseudovirus HIV-16055-2.3 (HIV-1)
[24] = target: Env of HIV-1 pseudovirus MS208.A1 (HIV-1)
[25] = target: Env of HIV-1 pseudovirus T257-31 (HIV-1)
[26] = target: Env of HIV-1 pseudovirus THRO4156.18 (HIV-1)
[27] = target: Env of HIV-1 pseudovirus ZM109F.PB4 (HIV-1)
[28] = target: Env of HIV-1 pseudovirus ZM135M.PL10a (HIV-1)
[29] = target: Env of HIV-1 pseudovirus ZM197M.PB7 (HIV-1)
[30] = target: Env of HIV-1 pseudovirus ZM214M.PL15 (HIV-1)
[31] = target: Env of HIV-1 pseudovirus ZM233M.PB6 (HIV-1)
[32] = target: HIV-1 Env pseudovirus 6041.v3.c23 (HIV-1)
[33] = target: HIV-1 Env pseudovirus 620345.c01 (HIV-1)
[34] = target: HIV-1 Env pseudovirus C2101.c01 (HIV-1)
[35] = target: HIV-1 Env pseudovirus R2184.c04 (HIV-1)
[36] = target: HIV-1 Env pseudovirus T251-18 (HIV-1)
[37] = target: HIV-1 Env pseudovirus X2131_C1_B5 (HIV-1)

## N49P11 (antibody)
[1]
  IC50: 0.125 µg/mL
  IC80: 0.487 µg/mL
  MPI: 100
[2]
  IC50: 2.92 µg/mL
  IC80: 13.1 µg/mL
  MPI: 100
[3]
  IC50: 3.54 µg/mL
  IC80: 12.9 µg/mL
  MPI: 100
[4]
  IC50: 0.599 µg/mL
  IC80: 3.56 µg/mL
  MPI: 100
[5]
  IC50: 0.72 µg/mL
  IC80: 3 µg/mL
  MPI: 100
[6]
  IC50: 0.889 µg/mL
  IC80: 4.45 µg/mL
  MPI: 100
[7]
  IC50: 0.091 µg/mL
  IC80: 0.387 µg/mL
  MPI: 100
[8]
  IC50: 0.38 µg/mL
  IC80: 3.27 µg/mL
  MPI: 100
[9]
  IC50: 0.221 µg/mL
  IC80: 1.64 µg/mL
  MPI: 100
[10]
  IC50: 0.091 µg/mL
  IC80: 0.503 µg/mL
  MPI: 100
[11]
  IC50: 0.048 µg/mL
  IC80: 0.308 µg/mL
  MPI: 100
[12]
  IC50: 0.729 µg/mL
  IC80: 3.49 µg/mL
  MPI: 100
[13]
  IC50: 4.86 µg/mL
  IC80: 13.2 µg/mL
  MPI: 100
[14]
  IC50: 1.35 µg/mL
  IC80: 8.98 µg/mL
  MPI: 100
[15]
  IC50: 5.92 µg/mL
  IC80: 18.5 µg/mL
  MPI: 100

## N49P18.1 (antibody)
[1]
  IC50: 2.8 µg/mL
  IC80: 9.66 µg/mL
  MPI: 99
[2]
  IC50: > 50 µg/mL
  IC80: > 50 µg/mL
  MPI: 0
[3]
  IC50: 5.71 µg/mL
  IC80: 23.1 µg/mL
  MPI: 94
[4]
  IC50: 10.4 µg/mL
  IC80: 48 µg/mL
  MPI: 82
[5]
  IC50: 35.2 µg/mL
  IC80: > 50 µg/mL
  MPI: 60
[6]
  IC50: 13.1 µg/mL
  IC80: 32.2 µg/mL
  MPI: 93
[7]
  IC50: 3.95 µg/mL
  IC80: 21.1 µg/mL
  MPI: 96
[8]
  IC50: 29 µg/mL
  IC80: > 50 µg/mL
  MPI: 68
[9]
  IC50: 1.13 µg/mL
  IC80: 8.31 µg/mL
  MPI: 100
[10]
  IC50: 8.04 µg/mL
  IC80: 22.6 µg/mL
  MPI: 97
[11]
  IC50: 4.92 µg/mL
  IC80: 18.3 µg/mL
  MPI: 97
[12]
  IC50: 14.1 µg/mL
  IC80: 43.4 µg/mL
  MPI: 84
[13]
  IC50: 11 µg/mL
  IC80: 37.6 µg/mL
  MPI: 87
[14]
  IC50: > 50 µg/mL
  IC80: > 50 µg/mL
  MPI: 20
[15]
  IC50: 38.4 µg/mL
  IC80: > 50 µg/mL
  MPI: 57

## PG9 (antibody)
[16]
  IC50: 0.293 µg/mL
  IC80: 1.05 µg/mL
[17]
  IC50: 0.026 µg/mL
  IC80: 0.088 µg/mL
[18]
  IC50: > 50 µg/mL
  IC80: > 50 µg/mL
[19]
  IC50: 0.196 µg/mL
  IC80: 0.698 µg/mL
[20]
  IC50: 0.07 µg/mL
  IC80: 0.206 µg/mL
[21]
  IC50: 0.026 µg/mL
  IC80: 0.19 µg/mL
[22]
  IC50: 0.01 µg/mL
  IC80: 0.03 µg/mL
[23]
  IC50: 0.021 µg/mL
  IC80: 0.06 µg/mL
[24]
  IC50: 0.005 µg/mL
  IC80: 0.014 µg/mL
[25]
  IC50: 0.037 µg/mL
  IC80: 0.124 µg/mL
[26]
  IC50: 24.5 µg/mL
  IC80: > 50 µg/mL
[27]
  IC50: 0.256 µg/mL
  IC80: 6.69 µg/mL
[28]
  IC50: 20.6 µg/mL
  IC80: > 50 µg/mL
[29]
  IC50: 0.899 µg/mL
  IC80: 4.52 µg/mL
[30]
  IC50: > 50 µg/mL
  IC80: > 50 µg/mL
[31]
  IC50: 0.01 µg/mL
  IC80: 0.026 µg/mL

## VRC01 (antibody)
[1]
  IC50 (Titer in TZM.bl cells): 0.15 µg/mL
  IC80 (Titer in TZM.bl cells): 0.39 µg/mL
[2]
  IC50 (Titer in TZM.bl cells): 0.71 µg/mL
  IC80 (Titer in TZM.bl cells): 2.85 µg/mL
[3]
  IC50 (Titer in TZM.bl cells): 0.13 µg/mL
  IC80 (Titer in TZM.bl cells): 0.46 µg/mL
[32]
  IC50 (Titer in TZM.bl cells): 0.02 µg/mL
  IC80 (Titer in TZM.bl cells): 0.08 µg/mL
[33]
  IC50 (Titer in TZM.bl cells): > 50 µg/mL
  IC80 (Titer in TZM.bl cells): > 50 µg/mL
[4]
  IC50 (Titer in TZM.bl cells): 0.96 µg/mL
  IC80 (Titer in TZM.bl cells): 4.68 µg/mL
[5]
  IC50 (Titer in TZM.bl cells): 0.61 µg/mL
  IC80 (Titer in TZM.bl cells): 1.82 µg/mL
[34]
  IC50 (Titer in TZM.bl cells): 0.36 µg/mL
  IC80 (Titer in TZM.bl cells): 1.17 µg/mL
[7]
  IC50 (Titer in TZM.bl cells): 0.08 µg/mL
  IC80 (Titer in TZM.bl cells): 0.48 µg/mL
[8]
  IC50 (Titer in TZM.bl cells): 0.32 µg/mL
  IC80 (Titer in TZM.bl cells): 1.07 µg/mL
[9]
  IC50 (Titer in TZM.bl cells): 0.02 µg/mL
  IC80 (Titer in TZM.bl cells): 0.06 µg/mL
[10]
  IC50 (Titer in TZM.bl cells): 0.08 µg/mL
  IC80 (Titer in TZM.bl cells): 0.26 µg/mL
[11]
  IC50 (Titer in TZM.bl cells): 0.08 µg/mL
  IC80 (Titer in TZM.bl cells): 0.29 µg/mL
[35]
  IC50 (Titer in TZM.bl cells): 0.08 µg/mL
  IC80 (Titer in TZM.bl cells): 0.32 µg/mL
[12]
  IC50 (Titer in TZM.bl cells): 0.08 µg/mL
  IC80 (Titer in TZM.bl cells): 0.265 µg/mL
[36]
  IC80 (Titer in TZM.bl cells): 11.2 µg/mL
[13]
  IC50 (Titer in TZM.bl cells): 0.15 µg/mL
  IC80 (Titer in TZM.bl cells): 0.41 µg/mL
[37]
  IC50 (Titer in TZM.bl cells): 0.51 µg/mL
  IC80 (Titer in TZM.bl cells): 1.54 µg/mL
[14]
  IC50 (Titer in TZM.bl cells): 0.44 µg/mL
  IC80 (Titer in TZM.bl cells): 2.6 µg/mL
[15]
  IC50 (Titer in TZM.bl cells): 2 µg/mL
  IC80 (Titer in TZM.bl cells): 9.3 µg/mL
